Measurements published in US20060166324, “Screening tools for discovery of novel anabolic agents” (USA as represented by the Dept. of Veterans Affairs, published 2006).

What was measured:
[1] = test system: Androgen receptor (full length) (Homo sapiens); assay: cell_activity; details: HepG2 luciferase reporter, testosterone
[2] = test system: Glucocorticoid receptor (Rattus norvegicus); assay: cell_activity; details: HepG2 luciferase reporter, dexamethasone
[3] = target: T1, Androgen receptor DNA-binding domain (Homo sapiens, UniProt P10275 P10275:560-632); assay: EMSA; band weaker than SRE; diminished by excess cold SRE; details: tags: GST fusion (pGEX 4T-1 hAR2, E. coli BL21); label: 32P
T1 sequence (P10275 560-632, one chain of several): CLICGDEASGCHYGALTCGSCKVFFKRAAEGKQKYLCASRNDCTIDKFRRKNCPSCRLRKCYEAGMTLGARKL
Description: (§1) In order to more directly test whether the AR bound to sequences with ARE1 and ARE2, binding of a GST-tagged version of recombinant AR DNA-binding domain to radiolabeled probes was examined using electrophoretic mobility shift assays.

[4] = target: T1, Androgen receptor DNA-binding domain; assay: EMSA; strong band, greatly diminished by excess unlabeled probe; details: tags: GST fusion (pGEX 4T-1 hAR2, E. coli BL21); label: 32P
Description: as §1

[5] = target: T1, Androgen receptor DNA-binding domain; assay: EMSA; band consistently weaker than SRE; greatly diminished by excess cold SRE; details: tags: GST fusion (pGEX 4T-1 hAR2, E. coli BL21); label: 32P
Description: as §1

Row | Molecule | activity (fold induction) [1] | activity (fold induction) [2] | other results
1 | pGL3-13a IGF-1 promoter insert -1370 to -1250 (ARE2) | > 20 | 5 | 
2 | pGL3-22 IGF-1 promoter insert -1508 to -1402 (ARE1) | > 5 | < 2 | 
3 | pGL3-32 IGF-1 promoter insert -1429 to -1250 (ARE1 and ARE2) |  | 5 | activity (fold induction) ([1]; 25-fold plateau in FIG. 15): 30
4 | IGF-1 ARE1 probe (dsDNA) DNA 1: GACTTGACCATATCTTATTCCTCTTTG DNA 2: CAAAGAGGAATAAGATATGGTCAAGTC |  |  | binding result [3]: binds
5 | consensus SRE probe (dsDNA) DNA 1: ATGCATTGGGTACATCTTGTTCACATA DNA 2: TATGTGAACAAGATGTACCCAATGCAT |  |  | binding result [4]: binds
6 | IGF-1 ARE2 probe (dsDNA) DNA 1: TTGTAGTTGGGCACATAGTAGAGCTCA DNA 2: TGAGCTCTACTATGTGCCCAACTACAA |  |  | binding result [5]: binds
